One block for each binder: values may come before it.
Key:
BSA = target: T1, BSA (Bos taurus, UniProt P02769); experiment: antigen ELISA: antigen coated at 10 ug/ml, HRP anti-mouse IgG [panel B]
T1 construct: coated on the ELISA plate as negative control antigen; also called bovine serum albumin
Protocol: For this experiment, sCEA, CHIM, monkey CEA, CEA-v and BSA were coated in 96-well plates at a high concentration of 10 μg/ml overnight at 4° C. […] The HRP-linked anti-mouse IgG antibody (Cat. No. 7076S, Cell Signaling Technology, USA) and substrate (Cat. No. 00-4201-56, eBioscience, USA) were used for development, and absorbance signal at the wavelength of 450 nm was measured using a plate reader (SpectraMax Paradigm, Molecular Devices, USA).

[1] = target: T2, full-length human CEA on cells (human, UniProt P06731 35-685); experiment: cell-based or functional assay
T2 sequence: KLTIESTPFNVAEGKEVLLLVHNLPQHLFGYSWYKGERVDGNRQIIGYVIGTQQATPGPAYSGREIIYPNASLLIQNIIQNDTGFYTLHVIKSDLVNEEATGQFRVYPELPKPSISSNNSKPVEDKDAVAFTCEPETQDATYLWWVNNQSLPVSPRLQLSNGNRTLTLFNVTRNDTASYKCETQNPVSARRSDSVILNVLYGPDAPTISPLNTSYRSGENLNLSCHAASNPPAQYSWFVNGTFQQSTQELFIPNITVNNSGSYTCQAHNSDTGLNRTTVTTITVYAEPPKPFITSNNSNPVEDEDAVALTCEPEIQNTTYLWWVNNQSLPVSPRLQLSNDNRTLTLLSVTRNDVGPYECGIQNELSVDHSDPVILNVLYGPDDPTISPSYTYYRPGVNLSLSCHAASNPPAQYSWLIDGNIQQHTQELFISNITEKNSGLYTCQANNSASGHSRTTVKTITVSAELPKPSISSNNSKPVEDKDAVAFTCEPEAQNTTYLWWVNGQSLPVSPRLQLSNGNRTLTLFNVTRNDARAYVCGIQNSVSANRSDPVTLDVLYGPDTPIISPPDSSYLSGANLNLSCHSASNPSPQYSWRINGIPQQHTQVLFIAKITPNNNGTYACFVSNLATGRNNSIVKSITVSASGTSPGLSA

[2] = target: T2, full-length human CEA on cells; experiment: flow cytometry on LOVO cells, Alexa Fluor 647 anti-human IgG Fc
Protocol: For this experiment, anti-human IgG (Fc) antibody was immobilized on an activated CM5 biosensor chip (Cat. No. BR100839, GE Life Sciences). Anti-CEA antibodies were flowed over the chip surface and captured by anti-human Fab antibody. […] For flow cytometry, CEA-expressing cells (10⁵ cells/well) were incubated with various concentrations of purified affinity-matured antibodies, followed by binding with Alexa Fluro-647-labeled anti-hu IgG Fc antibody (Cat. No. 409320, BioLegend, USA). Cell fluorescence was quantified using a flow cytometer (Guava easyCyte™ 8HT, Merck-Millipore, USA). The equilibrium dissociation constant (KD) was calculated as the ratio koff/kₒₙ.

[3] = target: T2, full-length human CEA on cells; experiment: flow cytometry on MKN45 cells, Alexa Fluor 647 anti-human IgG Fc
Protocol: For flow cytometry, CEA-expressing MKN45 cells (10⁵ cells/well) were incubated with various concentrations of purified affinity-matured antibodies, followed by binding with Alexa Fluro-647-labeled anti-hu IgG Fc antibody (Cat. No. 409320, BioLegend, USA). Cell fluorescence was quantified using a flow cytometer (Guava easyCyte™ 8HT, Merck-Millipore, USA).

[4] = target: T3, CEACAM7 on transfected HEK293 cells (human, UniProt Q14002 36-242); experiment: flow cytometry on transiently transfected HEK293 cells, Alexa Fluor 647 anti-human IgG Fc [panel B]
T3 sequence: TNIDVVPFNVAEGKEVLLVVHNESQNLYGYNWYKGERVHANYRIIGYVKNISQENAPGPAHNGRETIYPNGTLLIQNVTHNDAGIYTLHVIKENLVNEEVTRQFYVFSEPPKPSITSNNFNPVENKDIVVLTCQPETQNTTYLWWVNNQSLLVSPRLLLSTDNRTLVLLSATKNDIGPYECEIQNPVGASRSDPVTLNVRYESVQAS
Protocol: (§1) Cell fluorescence was quantified using a flow cytometer (Guava easyCyte™ 8HT, Merck-Millipore, USA). For antigen ELISA, CEACAM1(SEQ ID NO:64) (Cat. No. 10822-H08H, Sino Biological, China), CHIM (SEQ ID NO: 63), CEA (SEQ ID NO:55) or CEACAM6 (SEQ ID NO:57) were coated in 96-well plates at a concentration of 10 μg/ml overnight at 4° C. The HRP-linked anti-human Fc (Fc specific) IgG antibody (Cat. No. A0170, Sigma, USA) and substrate (Cat. No. 00-4201-56, eBioscience, USA) were used for development, and absorbance signal at the wavelength of 450 nm was measured using a plate reader (SpectraMax Paradigm, Molecular Devices, USA).

[5] = target: T4, CEACAM8 on transfected HEK293 cells (human, UniProt P31997 35-320); experiment: as above
T4 sequence: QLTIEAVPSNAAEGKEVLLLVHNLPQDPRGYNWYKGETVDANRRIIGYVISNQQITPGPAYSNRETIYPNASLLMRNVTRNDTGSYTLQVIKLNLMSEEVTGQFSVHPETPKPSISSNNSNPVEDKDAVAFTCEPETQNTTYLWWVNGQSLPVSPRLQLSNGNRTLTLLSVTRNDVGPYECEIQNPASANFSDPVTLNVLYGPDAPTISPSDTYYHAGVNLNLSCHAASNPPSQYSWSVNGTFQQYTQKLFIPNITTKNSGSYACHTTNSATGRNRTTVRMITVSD
Protocol: as §1

T1 sequence (P02769 25-607 limits assumed): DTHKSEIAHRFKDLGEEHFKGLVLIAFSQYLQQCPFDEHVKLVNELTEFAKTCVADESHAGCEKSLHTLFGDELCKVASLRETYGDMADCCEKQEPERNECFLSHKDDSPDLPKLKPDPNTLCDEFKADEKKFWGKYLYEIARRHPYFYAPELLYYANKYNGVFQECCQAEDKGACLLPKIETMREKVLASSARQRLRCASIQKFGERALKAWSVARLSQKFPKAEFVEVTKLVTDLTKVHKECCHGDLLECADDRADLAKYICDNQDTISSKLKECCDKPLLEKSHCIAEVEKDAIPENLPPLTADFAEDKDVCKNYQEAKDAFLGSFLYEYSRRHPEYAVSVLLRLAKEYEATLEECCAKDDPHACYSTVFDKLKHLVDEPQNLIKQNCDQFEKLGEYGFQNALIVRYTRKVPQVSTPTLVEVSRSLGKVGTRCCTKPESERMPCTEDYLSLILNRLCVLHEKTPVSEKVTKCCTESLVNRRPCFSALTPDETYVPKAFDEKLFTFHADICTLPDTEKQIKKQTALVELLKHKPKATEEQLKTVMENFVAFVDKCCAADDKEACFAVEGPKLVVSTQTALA

B2: BGA113 (antibody, human IgG1, V domains shown)
VH: QVQLVQSGAEVKKPGASVKVSCKASGYIFTSYYLHWVRQAPGQGLEWIGYINPQTGYTSYAQKFQGRVTMTRDTSTSTVYMELSSLRSEDTAVYYCAREYGNYNYPLDYWGQGTLVTVSS
VL: DIQMTQSPSSLSASVGDRVTITCRASENQYGYLAWYQQKPGKVPKLLIYNYKNLVEGVPSRFSGSGSGTDFTLTISSLQPEDVATYYCQHHLGTPYTFGQGTKVEIK
notes: W33Y (VH), T51Y (VL) on BGA131F-ph-M; wild-type human IgG1 format
- ADCC (LDH release), EC50 [1]: ~0.0067 µg/mL
- EC50 (read off the curve) [2]: ~1 nM

B3: BGA131F (antibody, human IgG1, V domains shown)
VH: QVQLVQSGAEVKKPGASVKVSCKASGYIFTSYWLHWVRQAPGQGLEWIGYINPQTGYTSYAQKFQGRVTMTRDTSTSTVYMELSSLRSEDTAVYYCAREYGNYNYPLDYWGQGTLVTVSS
VL: DIQMTQSPSSLSASVGDRVTITCRASENIYGYLAWYQQKPGKVPKLLIYNAKNLVEGVPSRFSGSGSGTDFTLTISSLQPEDVATYYCQHHYGTPYTFGQGTKVEIK
notes: BGA131 with N54Q, N59S, S61A in VH; human IgG1 / kappa format
- EC50 (read off the curve) [2]: ~6 nM

The next lines start with results.

- binding result (BSA): no binding
B1: BGA13 (antibody, V domains shown)
VH: QVQLQQSGAELAKSGASVKMSCKASGYIFTSYWLHWVKQRPGQGLEWIGYINPNTGYTNYSQKFKDKATLTADKSSSTAYMQLSSLTSEDSAVYYCAREYGNYNYPLDYWGQGTSVTVSS
VL: DIQMTQSPASLSASVGETVTITCRASENIYGYLAWYQQKQGKSPQLLVFNAKNLVEGVPSRFSGSGSGTQFSLKINSLQPEDFGSYYCQHHYGTPYTFGGGTKLEIK
notes: murine monoclonal IgG purified from hybridoma supernatant; also called murine anti-CEA antibody BGA13

- EC50 (read off the curve) [2]: ~5 nM
B4: BGA131F-ph-M (antibody, V domains shown)
VH: QVQLVQSGAEVKKPGASVKVSCKASGYIFTSYWLHWVRQAPGQGLEWIGYINPQTGYTSYAQKFQGRVTMTRDTSTSTVYMELSSLRSEDTAVYYCAREYGNYNYPLDYWGQGTLVTVSS
VL: DIQMTQSPSSLSASVGDRVTITCRASENQYGYLAWYQQKPGKVPKLLIYNTKNLVEGVPSRFSGSGSGTDFTLTISSLQPEDVATYYCQHHLGTPYTFGQGTKVEIK
notes: BGA13-1F heavy chain with a selected kappa light chain, IgG; also called BGA1311F-ph-M

- EC50 (read off the curve) [3]: ~0.5 µg/mL
B5: BGA113K (antibody, human IgG1, V domains shown)
VH: QVQLVQSGAEVKKPGASVKVSCKASGYIFTSYYLHWVRQAPGQGLEWIGYINPQTGKTSYAQKFQGRVTMTRDTSTSTVYMELSSLRSEDTAVYYCAREYGNYNYPLDYWGQGTLVTVSS
VL: DIQMTQSPSSLSASVGDRVTITCRASENQYGYLAWYQQKPGKVPKLLIYNYKNLVEGVPSRFSGSGSGTDFTLTISSLQPEDVATYYCQHHLGTPYTFGQGTKVEIK
notes: BGA113 with Y57K in the heavy chain; generated in human IgG1 format; also called BGA113 variant Y57K; Y57K
- binding result [4]: no binding (tested: 2 ug/ml (from paragraph 184; not on the sheet))
- binding result [5]: no binding (tested: 2 ug/ml (from paragraph 184; not on the sheet))
